In patent publication US20160193299A1, “MODIFIED NUCLEOSIDE, NUCLEOTIDE, AND NUCLEIC ACID COMPOSITIONS” (Moderna Therapeutics, Inc., priority 2011, published 2016):

Assays:
G-CSF [1] = assay: Example 17 LNP in vivo study IV/IM/SC, serum G-CSF ELISA; settings: rats, 0.05 mg/kg
Description: (§1) Formulations, listed in Table 31, were characterized by particle size, zeta potential, and encapsulation.
LNP formulations, shown in Table 31 (above), were administered to rats (n=5) intravenously (IV), intramuscularly (IM) or subcutaneously (SC) at a single modified mRNA dose of 0.05 mg/kg. A control group of rats (n=4) was untreated. […] The rats administered EPO modified mRNA intravenously were also bled at 7 days.

G-CSF [2] = assay: Example 18 time course in vivo study, serum G-CSF ELISA; settings: mice IV
Description: as §1
LNP formulations, shown in Table 31 (above), were administered to mice (n=5) intravenously (IV) at a single modified mRNA dose of 0.5, 0.05 or 0.005 mg/kg. The mice were bled at 8 hours, 24 hours, 72 hours and 6 days after they were administered with G-CSF or EPO modified mRNA formulations to determine protein expression using ELISA.

hemoglobin (HGB) = assay: Example 22 non-human primate study, hemoglobin (HGB); assay type: in vivo, cynomolgus monkey
Description: (§2) LNP formulations, shown in Table 31 (above), were administered to non-human primates (NHP) (cynomolgus monkey) (n=2) as intravenous injection (IV). The NHP were administered a single modified mRNA IV dose of 0.5 mg/kg, 0.05 mg/kg or 0.005 mg/kg of G-CSF or EPO in a dose volume of 0.5 mL/kg. The NHPs were bled before dosing with the modified mRNA LNP formulations to determine protein expression in the serum and a baseline complete blood count. After administration with the G-CSF modified mRNA formulation the NHP were bled at 8, 24, 48 and 72 hours to determined protein expression. After administration with the EPO modified mRNA formulation the NHP were bled at 8, 24, 48, 72 hours and 7 days to determined protein expression.

red blood cell (RBC) = assay: Example 22 non-human primate study, red blood cell (RBC) count; assay type: in vivo, cynomolgus monkey; settings: Female NHP, 0.005 mg/kg
Description: as §2

B1: G-CSF: human G-CSF mRNA SEQ ID NO: 6, polyA ~160 nt, Cap1, fully modified with 5-methylcytosine and pseudouridine (nucleic acid, listed as Homo sapiens)
chain: GGGAAAUAAGAGAGAAAAGAAGAGUAAGAAGAAAUAUAAGAGCCACCAUGGCCGGUCCCGCGACCCAAAGCCCCAUGAAACUUAUGGCCCUGCAGUUGCUGCUUUGGCACUCGGCCCUCUGGACAGUCCAAGAAGCGACUCCUCUCGGACCUGCCUCAUCGUUGCCGCAGUCAUUCCUUUUGAAGUGUCUGGAGCAGGUGCGAAAGAUUCAGGGCGAUGGAGCCGCACUCCAAGAGAAGCUCUGCGCGACAUACAAACUUUGCCAUCCCGAGGAGCUCGUACUGCUCGGGCACAGCUUGGGGAUUCCCUGGGCUCCUCUCUCGUCCUGUCCGUCGCAGGCUUUGCAGUUGGCAGGGUGCCUUUCCCAGCUCCACUCCGGUUUGUUCUUGUAUCAGGGACUGCUGCAAGCCCUUGAGGGAAUCUCGCCAGAAUUGGGCCCGACGCUGGACACGUUGCAGCUCGACGUGGCGGAUUUCGCAACAACCAUCUGGCAGCAGAUGGAGGAACUGGGGAUGGCACCCGCGCUGCAGCCCACGCAGGGGGCAAUGCCGGCCUUUGCGUCCGCGUUUCAGCGCAGGGCGGGUGGAGUCCUCGUAGCGAGCCACCUUCAAUCAUUUUUGGAAGUCUCGUACCGGGUGCUGAGACAUCUUGCGCAGCCGUGAAGCGCUGCCUUCUGCGGGGCUUGCCUUCUGGCCAUGCCCUUCUUCUCUCCCUUGCACCUGUACCUCUUGGUCUUUGAAUAAAGCCUGAGUAGGAAG
modifications: polyA ~160, Cap1, 5mC/pseudouridine modified
G-CSF Serum Concentration (G-CSF [1]; IM, 2 hours): 1620.4 pg/mL
G-CSF Serum Concentration (G-CSF [1]; IM, 8 hours): 7910.4 pg/mL
G-CSF Serum Concentration (G-CSF [1]; IM, 24 hours): 893.3 pg/mL
G-CSF Serum Concentration (G-CSF [1]; IM, 48 hours): OSC
G-CSF Serum Concentration (G-CSF [1]; IM, 5 days): OSC
G-CSF detectable to (G-CSF [1]; IV): 7 days
G-CSF Serum Concentration (G-CSF [1]; IV, 2 hours): 31,331.9 pg/ml
G-CSF Serum Concentration (G-CSF [1]; IV, 8 hours): 70,532.4 pg/ml
G-CSF Serum Concentration (G-CSF [1]; IV, 24 hours): 5,738.6 pg/ml
G-CSF Serum Concentration (G-CSF [1]; IV, 48 hours): 233.8 pg/mL
G-CSF Serum Concentration (G-CSF [1]; IV, 5 days): 60.4 pg/mL
G-CSF Serum Concentration (G-CSF [1]; SC, 2 hours): 80.3 pg/mL
G-CSF Serum Concentration (G-CSF [1]; SC, 8 hours): 164.2 pg/mL
G-CSF Serum Concentration (G-CSF [1]; SC, 24 hours): OSC
G-CSF Serum Concentration (G-CSF [1]; SC, 48 hours): OSC
G-CSF Serum Concentration (G-CSF [1]; SC, 5 days): OSC
G-CSF detectable to at least (G-CSF [1]; subcutaneous and intramuscular): at least 8 hours
G-CSF protein expression detectable out to (G-CSF [2]; 0.005 mg/kg and 0.05 mg/kg): 72 h
G-CSF Serum Concentration (G-CSF [2]; 0.005 mg/kg, 8 hours): 11,550.6 pg/ml
G-CSF Serum Concentration (G-CSF [2]; 0.005 mg/kg, 24 hours): 5,068.9 pg/ml
G-CSF Serum Concentration (G-CSF [2]; 0.05 mg/kg, 8 hours): 462,312.5 pg/ml
G-CSF Serum Concentration (G-CSF [2]; 0.05 mg/kg, 24 hours): 80,903.8 pg/ml
G-CSF Serum Concentration (G-CSF [2]; 0.5 mg/kg, 8 hours): >1,250,000 pg/ml
G-CSF Serum Concentration (G-CSF [2]; 0.5 mg/kg, 24 hours): 495,812.5 pg/ml
G-CSF Serum Concentration (G-CSF [2]; 0.5 mg/kg, 72 hours): 1,325.6 pg/ml
HGB (hemoglobin (HGB); Female NHP, 0.005 mg/kg, 14/18 days): 129 g/L
HGB (hemoglobin (HGB); Female NHP, 0.005 mg/kg, 24 hours): 127 g/L
HGB (hemoglobin (HGB); Female NHP, 0.005 mg/kg, 3 days): 127 g/L
HGB (hemoglobin (HGB); Female NHP, 0.005 mg/kg, 7 days): 129 g/L
HGB (hemoglobin (HGB); Female NHP, 0.005 mg/kg, Pre-dose): 129 g/L
HGB (hemoglobin (HGB); Female NHP, 0.05 mg/kg, 14/18 days): 123 g/L
HGB (hemoglobin (HGB); Female NHP, 0.05 mg/kg, 24 hours): 117 g/L
HGB (hemoglobin (HGB); Female NHP, 0.05 mg/kg, 3 days): 115 g/L
HGB (hemoglobin (HGB); Female NHP, 0.05 mg/kg, 7 days): 116 g/L
HGB (hemoglobin (HGB); Female NHP, 0.05 mg/kg, Pre-dose): 129 g/L
HGB (hemoglobin (HGB); Female NHP, 0.5 mg/kg, 14/18 days): 113 g/L
HGB (hemoglobin (HGB); Female NHP, 0.5 mg/kg, 24 hours): 112 g/L
HGB (hemoglobin (HGB); Female NHP, 0.5 mg/kg, 3 days): 114 g/L
HGB (hemoglobin (HGB); Female NHP, 0.5 mg/kg, 7 days): 116 g/L
HGB (hemoglobin (HGB); Female NHP, 0.5 mg/kg, Pre-dose): 129 g/L
HGB (hemoglobin (HGB); Male NHP, 0.005 mg/kg, 14/18 days): 118 g/L
HGB (hemoglobin (HGB); Male NHP, 0.005 mg/kg, 24 hours): 117 g/L
HGB (hemoglobin (HGB); Male NHP, 0.005 mg/kg, 3 days): 116 g/L
HGB (hemoglobin (HGB); Male NHP, 0.005 mg/kg, 7 days): 116 g/L
HGB (hemoglobin (HGB); Male NHP, 0.005 mg/kg, Pre-dose): 128 g/L
HGB (hemoglobin (HGB); Male NHP, 0.05 mg/kg, 14/18 days): 134 g/L
HGB (hemoglobin (HGB); Male NHP, 0.05 mg/kg, 24 hours): 122 g/L
HGB (hemoglobin (HGB); Male NHP, 0.05 mg/kg, 3 days): 126 g/L
HGB (hemoglobin (HGB); Male NHP, 0.05 mg/kg, 7 days): 126 g/L
HGB (hemoglobin (HGB); Male NHP, 0.05 mg/kg, Pre-dose): 137 g/L
HGB (hemoglobin (HGB); Male NHP, 0.5 mg/kg, 14/18 days): 98 g/L
HGB (hemoglobin (HGB); Male NHP, 0.5 mg/kg, 24 hours): 113 g/L
HGB (hemoglobin (HGB); Male NHP, 0.5 mg/kg, 3 days): 118 g/L
HGB (hemoglobin (HGB); Male NHP, 0.5 mg/kg, 7 days): 115 g/L
HGB (hemoglobin (HGB); Male NHP, 0.5 mg/kg, Pre-dose): 133 g/L
RBC (red blood cell (RBC); 14/18 days): 5.34 10^12/L
RBC (red blood cell (RBC); 24 hours): 5.35 10^12/L
RBC (red blood cell (RBC); 3 days): 5.24 10^12/L
